Laboratory results from patent publication US20230304075, “NUCLEIC ACID-BASED BIOSENSOR AND ASSOCIATED METHODS” (FACible BioDiagnostics LLC, published 2023).

B1: Rho91 (DAF1-4560c-17) (ssRNA)
RNA: GGCGAUGCUAGGCUACGACUAGGCCUGAGAAUACUAGUCAAAGACGAUCGCUCGCUUCGGCGAUGAUGGAGAGGCGCAAGGUUAACCGCCUCAGCGUUCAAGCAAAAGAACCCUGUUUGGCUCACCGGGUCCUGCGCAU
B2: Rho94 (DAF2-30e-17) (ssRNA)
RNA: GGUAGCCCUGCCCGGUGUACCUGAGCCUAGCUCAACGACUCGCUUCGGCGAUGAUGGAGAGGCGCAAGGUUAACCGCCUCAGUCGAAUGGGUACACCUGGCAGUCCGGACAUGCAU

Key:
[1] = target: SARS-CoV-2 spike S2 protein (SARS-CoV-2, UniProt P0DTC2 P0DTC2:686-1213)
[2] = target: SARS-CoV-2 spike S1 protein (SARS-CoV-2, UniProt P0DTC2 P0DTC2:14-685)

Binder	binding result [1]	binding result [2]
B1	binds	no binding
B2	binds	no binding
